US20250313605A1
*1 amine or outer side, *2 acyl side, *3 side chain or, on linkers, in order; H or OH if unused. Where no end group is shown, it is not given here. Side-chain parts run from the residue outwards. [ ]: non-standard residue; d: D form. The star is where a group is joined. C20 diacid = O=C(O)CCCCCCCCCCCCCCCCCCC(=O)*; γGlu = O=C(O)[C@H](CCC(=O)[*:2])N[*:1]; αMeL = CC(C)C[C@](C)(N)C(=O)O; αMeK = C[C@](N)(CCCCN)C(=O)O; AEEA = NCCOCCOCC(=O)O; Aib = CC(C)(N)C(=O)O

B1: Example 2 (peptide)
peptide: Y[Aib]QGTFTSDYSI[αMeL]LDKK([AEEA-γGlu-C20 diacid])AQHAFIEYLLA[Aib]GPSSGAPPPS-NH2
modifications: N-terminus assumed
SMILES: CC[C@H](C)[C@H](NC(=O)[C@H](Cc1ccccc1)NC(=O)[C@H](C)NC(=O)[C@H](Cc1c[nH]cn1)NC(=O)[C@H](CCC(N)=O)NC(=O)[C@H](C)NC(=O)[C@H](CCCCNC(=O)COCCOCCNC(=O)CC[C@H](NC(=O)CCCCCCCCCCCCCCCCCCC(=O)O)C(=O)O)NC(=O)[C@H](CCCCN)NC(=O)[C@H](CC(=O)O)NC(=O)[C@H](CC(C)C)NC(=O)[C@](C)(CC(C)C)NC(=O)[C@@H](NC(=O)[C@H](CO)NC(=O)[C@H](Cc1ccc(O)cc1)NC(=O)[C@H](CC(=O)O)NC(=O)[C@H](CO)NC(=O)[C@@H](NC(=O)[C@H](Cc1ccccc1)NC(=O)[C@@H](NC(=O)CNC(=O)[C@H](CCC(N)=O)NC(=O)C(C)(C)NC(=O)[C@@H](N)Cc1ccc(O)cc1)[C@@H](C)O)[C@@H](C)O)[C@@H](C)CC)C(=O)N[C@@H](CCC(=O)O)C(=O)N[C@@H](Cc1ccc(O)cc1)C(=O)N[C@@H](CC(C)C)C(=O)N[C@@H](CC(C)C)C(=O)N[C@@H](C)C(=O)NC(C)(C)C(=O)NCC(=O)N1CCC[C@H]1C(=O)N[C@@H](CO)C(=O)N[C@@H](CO)C(=O)NCC(=O)N[C@@H](C)C(=O)N1CCC[C@H]1C(=O)N1CCC[C@H]1C(=O)N1CCC[C@H]1C(=O)N[C@@H](CO)C(N)=O
B2: Example 1 (peptide)
peptide: H-Y[Aib]QGTFTSDYSI[αMeL]LDKK([AEEA-AEEA-γGlu-C20 diacid])AQ[αMeK]AFIEYLLA[Aib]GPSSGAPPPS-NH2
SMILES: CC[C@H](C)[C@H](NC(=O)[C@H](Cc1ccccc1)NC(=O)[C@H](C)NC(=O)[C@](C)(CCCCN)NC(=O)[C@H](CCC(N)=O)NC(=O)[C@H](C)NC(=O)[C@H](CCCCNC(=O)COCCOCCNC(=O)COCCOCCNC(=O)CC[C@H](NC(=O)CCCCCCCCCCCCCCCCCCC(=O)O)C(=O)O)NC(=O)[C@H](CCCCN)NC(=O)[C@H](CC(=O)O)NC(=O)[C@H](CC(C)C)NC(=O)[C@](C)(CC(C)C)NC(=O)[C@@H](NC(=O)[C@H](CO)NC(=O)[C@H](Cc1ccc(O)cc1)NC(=O)[C@H](CC(=O)O)NC(=O)[C@H](CO)NC(=O)[C@@H](NC(=O)[C@H](Cc1ccccc1)NC(=O)[C@@H](NC(=O)CNC(=O)[C@H](CCC(N)=O)NC(=O)C(C)(C)NC(=O)[C@@H](N)Cc1ccc(O)cc1)[C@@H](C)O)[C@@H](C)O)[C@@H](C)CC)C(=O)N[C@@H](CCC(=O)O)C(=O)N[C@@H](Cc1ccc(O)cc1)C(=O)N[C@@H](CC(C)C)C(=O)N[C@@H](CC(C)C)C(=O)N[C@@H](C)C(=O)NC(C)(C)C(=O)NCC(=O)N1CCC[C@H]1C(=O)N[C@@H](CO)C(=O)N[C@@H](CO)C(=O)NCC(=O)N[C@@H](C)C(=O)N1CCC[C@H]1C(=O)N1CCC[C@H]1C(=O)N1CCC[C@H]1C(=O)N[C@@H](CO)C(N)=O

Key:
[1] = target: T1, human GLP-1 receptor (human), P43220; assay: cell-based or functional assay
T1 chain: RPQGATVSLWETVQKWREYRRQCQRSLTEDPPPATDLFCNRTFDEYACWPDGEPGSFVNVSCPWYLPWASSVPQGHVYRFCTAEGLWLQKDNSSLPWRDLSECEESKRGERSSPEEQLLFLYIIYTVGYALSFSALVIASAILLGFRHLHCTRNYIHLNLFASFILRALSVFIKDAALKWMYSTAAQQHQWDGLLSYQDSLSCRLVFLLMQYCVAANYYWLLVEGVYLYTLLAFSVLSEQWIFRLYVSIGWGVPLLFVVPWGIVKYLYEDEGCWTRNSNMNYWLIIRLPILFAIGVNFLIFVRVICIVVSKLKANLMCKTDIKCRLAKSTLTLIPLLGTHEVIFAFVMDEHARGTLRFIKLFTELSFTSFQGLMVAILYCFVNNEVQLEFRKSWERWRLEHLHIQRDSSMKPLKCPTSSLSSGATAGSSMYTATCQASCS

[2] = target: T2, human GIP receptor (human), P48546; assay: cell-based or functional assay
T2 chain: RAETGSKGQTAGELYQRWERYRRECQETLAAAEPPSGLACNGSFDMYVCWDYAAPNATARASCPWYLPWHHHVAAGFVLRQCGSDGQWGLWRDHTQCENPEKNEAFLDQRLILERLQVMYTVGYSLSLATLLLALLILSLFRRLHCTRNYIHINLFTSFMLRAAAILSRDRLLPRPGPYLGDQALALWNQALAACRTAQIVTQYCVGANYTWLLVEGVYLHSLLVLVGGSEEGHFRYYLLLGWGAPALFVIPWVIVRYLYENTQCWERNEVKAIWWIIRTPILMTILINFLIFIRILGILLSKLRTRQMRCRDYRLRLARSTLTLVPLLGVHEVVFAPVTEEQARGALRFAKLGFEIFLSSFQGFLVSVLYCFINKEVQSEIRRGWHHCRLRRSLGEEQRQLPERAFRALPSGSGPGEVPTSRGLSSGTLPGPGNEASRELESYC

[3] = target: human glucagon receptor (human), P47871; assay: cell-based or functional assay
Chain of human glucagon receptor (human), P47871 (P47871 26-477): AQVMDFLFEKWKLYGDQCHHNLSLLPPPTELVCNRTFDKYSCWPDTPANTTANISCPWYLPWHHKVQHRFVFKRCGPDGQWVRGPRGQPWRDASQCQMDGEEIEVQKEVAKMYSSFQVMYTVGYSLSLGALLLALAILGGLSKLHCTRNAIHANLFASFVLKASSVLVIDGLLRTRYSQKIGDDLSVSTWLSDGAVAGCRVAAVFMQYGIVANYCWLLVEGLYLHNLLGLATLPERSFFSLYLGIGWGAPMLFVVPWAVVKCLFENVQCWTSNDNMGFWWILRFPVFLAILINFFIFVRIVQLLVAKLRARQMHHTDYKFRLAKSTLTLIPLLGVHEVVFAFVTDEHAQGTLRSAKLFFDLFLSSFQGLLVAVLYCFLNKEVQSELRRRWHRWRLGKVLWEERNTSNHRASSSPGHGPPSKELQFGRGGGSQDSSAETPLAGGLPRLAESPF

[4] = target: T1, human GLP-1 receptor (human), P43220; assay: radioligand competition SPA, HEK293 membranes
[5] = target: T2, human GIP receptor (human), P48546; assay: radioligand competition SPA, HEK293 membranes
[6] = target: human glucagon receptor (human), P47871; assay: radioligand competition SPA, HEK293 membranes

Binder | cAMP EC50 (0.1% casein) [1] [nM] | cAMP EC50 (FBS and BSA present) [1] [nM] | cAMP EC50 (0.1% casein) [2] [nM] | cAMP EC50 (FBS and BSA present) [2] [nM] | cAMP EC50 (0.1% casein) [3] [nM] | cAMP EC50 (FBS and BSA present) [3] [nM] | Ki [4] [nM] | Ki [5] [nM] | Ki [6] [nM]
B1 | 0.207 | 12.8 | 0.0474 | 2.19 | 0.0553 | 2.66 | 4.5 | 0.0665 | 3.71
B2 | 0.153 | 7.49 | 0.0523 | 0.914 | 0.114 | 2.54 | 2.64 | 0.0469 | 8.41
